No end group written: not given here. *: point of attachment. Myristoyl = CCCCCCCCCCCCCC(=O)*
B1: pCAP 250 (SEQ ID NO: 1) (peptide)
peptide: Myristoyl-RRHSTPHPD
B2: pCAP250 (peptide)
chain: RRHSTPHPD

Tests used:
[1] = target: two different p53 missense mutations (A161T and R175H) expressed in U266 and OPM2 multiple myeloma cells; assay: cell-based or functional assay
Full length p53 = assay: MST; FIG. 3B; settings: chains peptide; modification not given

Row | Binder | IC50, cell viability (CellTiter-Glo, 72 h) of multiple myeloma cell lines [1] [µM] | Kd (Full length p53) [µM]
1 | B1 | 1.5 to 3 | –
2 | B2 | – | 30
